# Data taken from PMC9482650, “Quantitative fragmentomics allow affinity mapping of interactomes” (Nature Communications, 2022).
# T1: LIN7A, O14910
# T1 sequence (O14910 103-200, limits assumed, looked up): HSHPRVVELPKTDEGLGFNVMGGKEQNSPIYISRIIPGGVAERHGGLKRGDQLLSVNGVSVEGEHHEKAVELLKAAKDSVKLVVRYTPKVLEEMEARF
# T2: APBA2_2, Q99767
# T2 sequence (Q99767 654-744, limits assumed, looked up): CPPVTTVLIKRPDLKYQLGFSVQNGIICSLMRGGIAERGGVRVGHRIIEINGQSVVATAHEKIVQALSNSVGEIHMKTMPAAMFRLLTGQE
# T3: PTPN13_1, Q12923
# T3 sequence (Q12923 1088-1188, limits assumed, looked up): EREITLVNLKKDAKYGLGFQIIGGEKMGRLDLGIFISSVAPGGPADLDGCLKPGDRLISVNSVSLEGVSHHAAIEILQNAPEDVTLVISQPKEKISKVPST
# T4: APBA1_2, Q02410
# T4 sequence (Q02410 742-832, limits assumed, looked up): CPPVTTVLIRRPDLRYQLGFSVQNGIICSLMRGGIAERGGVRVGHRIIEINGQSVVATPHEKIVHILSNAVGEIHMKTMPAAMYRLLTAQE
# T5: SNTA1, Q13424
# T5 sequence (Q13424 82-180, limits assumed, looked up): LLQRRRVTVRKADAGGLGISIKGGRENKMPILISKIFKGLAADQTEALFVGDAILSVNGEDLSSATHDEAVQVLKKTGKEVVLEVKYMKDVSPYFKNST
# T6: NHERF3_3, Q5T2W1
# T6 sequence (Q5T2W1 238-333, limits assumed, looked up): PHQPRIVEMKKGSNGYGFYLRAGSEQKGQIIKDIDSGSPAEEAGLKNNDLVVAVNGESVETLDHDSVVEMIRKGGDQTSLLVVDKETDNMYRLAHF
# T7: GRIP1_2, Q9Y3R0
# T7 sequence (Q9Y3R0 145-248, limits assumed, looked up): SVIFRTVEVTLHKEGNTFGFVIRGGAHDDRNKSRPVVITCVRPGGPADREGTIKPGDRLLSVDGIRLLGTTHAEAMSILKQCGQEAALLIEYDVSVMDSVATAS
# T8: SNTG1, Q9NSN8
# T8 sequence (Q9NSN8 52-150, limits assumed, looked up): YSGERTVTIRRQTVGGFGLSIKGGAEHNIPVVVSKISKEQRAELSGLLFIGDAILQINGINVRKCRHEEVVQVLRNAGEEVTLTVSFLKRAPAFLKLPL
# T9: MPP7, Q5T2T1
# T9 sequence (Q5T2T1 134-230, limits assumed, looked up): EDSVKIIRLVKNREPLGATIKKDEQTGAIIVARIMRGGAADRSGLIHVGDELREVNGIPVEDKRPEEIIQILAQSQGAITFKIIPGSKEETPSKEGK
# T10: LNX2_2, Q8N448
# T10 sequence (Q8N448 334-432, limits assumed, looked up): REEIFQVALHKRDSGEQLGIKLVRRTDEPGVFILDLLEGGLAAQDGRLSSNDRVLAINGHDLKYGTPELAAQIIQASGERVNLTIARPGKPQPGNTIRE
# T11: ARHGEF11, O15085
# T11 sequence (O15085 42-136, limits assumed, looked up): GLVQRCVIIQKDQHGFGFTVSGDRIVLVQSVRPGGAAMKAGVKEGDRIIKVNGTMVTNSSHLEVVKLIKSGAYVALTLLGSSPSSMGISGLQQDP
# T12: SYNJ2BP, P57105
# T12 sequence (P57105 8-110, limits assumed, looked up): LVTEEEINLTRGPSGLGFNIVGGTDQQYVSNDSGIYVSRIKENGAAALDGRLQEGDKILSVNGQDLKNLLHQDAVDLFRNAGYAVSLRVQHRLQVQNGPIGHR
# Assays:
# Assay in all cases: holdup assay
# Design in all cases: key: below the threshold = too weak to quantify, mostly under pKd 3.1 to 4
# [1] = molecular target: T1, LIN7A, O14910
# [2] = molecular target: Inadl_2, Q8NI35
# [3] = molecular target: T2, APBA2_2, Q99767
# [4] = molecular target: T3, PTPN13_1, Q12923
# [5] = molecular target: SNX27, Q96L92
# [6] = molecular target: T4, APBA1_2, Q02410
# [7] = molecular target: T5, SNTA1, Q13424
# [8] = molecular target: T6, NHERF3_3, Q5T2W1
# [9] = molecular target: GIPC2, Q8TF65
# [10] = molecular target: GRIP2_4, Q9C0E4
# [11] = molecular target: IL16_4, Q14005
# [12] = molecular target: DLG4_2, P78352
# [13] = molecular target: DLG4_1, P78352
# [14] = molecular target: T7, GRIP1_2, Q9Y3R0
# [15] = molecular target: T8, SNTG1, Q9NSN8
# [16] = molecular target: Inadl_8, Q8NI35
# [17] = molecular target: Inadl_4, Q8NI35
# [18] = molecular target: NOS1, P29475
# [19] = molecular target: PDZRN4_1, Q6ZMN7
# [20] = molecular target: T9, MPP7, Q5T2T1
# [21] = molecular target: PARD3_3, Q8TEW0
# [22] = molecular target: T10, LNX2_2, Q8N448
# [23] = molecular target: T11, ARHGEF11, O15085
# [24] = molecular target: PICK1, Q9NRD5
# [25] = molecular target: T12, SYNJ2BP, P57105
# [26] = molecular target: MAGI1_1, Q96QZ7
# [27] = plain residues with an end cap or a label only (N-terminal biotin on a linker: ahx)
# [28] = plain residues with an end cap or a label only (N-terminal biotin on a linker: ttds)
# [29] = plain residues with an end cap or a label only (N-terminal biotin on a linker: ado-ado)
# Chain of IL16_4, Q14005 (Q14005 1229-1329): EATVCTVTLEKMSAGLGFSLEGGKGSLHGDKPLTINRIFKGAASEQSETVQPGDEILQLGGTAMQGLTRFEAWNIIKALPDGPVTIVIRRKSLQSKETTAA
# Chain of MAGI1_1, Q96QZ7 (Q96QZ7 1-106): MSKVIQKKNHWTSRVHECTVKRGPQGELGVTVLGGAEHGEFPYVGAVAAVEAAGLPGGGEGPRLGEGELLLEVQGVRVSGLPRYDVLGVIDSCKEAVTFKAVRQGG
# Chain of Inadl_4, Q8NI35 (Q8NI35 547-651): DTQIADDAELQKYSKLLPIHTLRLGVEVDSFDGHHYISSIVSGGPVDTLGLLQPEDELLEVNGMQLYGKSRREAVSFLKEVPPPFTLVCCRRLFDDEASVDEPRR
# Chain of GRIP2_4, Q9C0E4 (Q9C0E4 446-548): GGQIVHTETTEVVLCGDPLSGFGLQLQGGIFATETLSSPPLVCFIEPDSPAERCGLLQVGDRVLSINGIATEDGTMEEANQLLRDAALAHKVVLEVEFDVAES
# Chain of Inadl_2, Q8NI35 (Q8NI35 238-335): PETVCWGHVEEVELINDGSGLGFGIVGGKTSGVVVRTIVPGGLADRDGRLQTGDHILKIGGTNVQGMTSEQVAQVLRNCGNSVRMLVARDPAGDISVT
# Chain of GIPC2, Q8TF65 (Q8TF65 112-203): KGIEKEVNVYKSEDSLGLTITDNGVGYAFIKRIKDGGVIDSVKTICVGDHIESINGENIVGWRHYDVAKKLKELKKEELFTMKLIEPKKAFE
# Chain of DLG4_1, P78352 (P78352 62-152): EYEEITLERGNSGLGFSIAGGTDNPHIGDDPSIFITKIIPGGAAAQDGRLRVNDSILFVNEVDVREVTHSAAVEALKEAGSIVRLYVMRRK
# Chain of PDZRN4_1, Q6ZMN7 (Q6ZMN7 213-318): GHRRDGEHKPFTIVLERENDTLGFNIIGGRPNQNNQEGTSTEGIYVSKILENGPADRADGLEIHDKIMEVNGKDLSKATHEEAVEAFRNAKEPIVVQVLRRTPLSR
# Chain of NOS1, P29475 (P29475 9-101): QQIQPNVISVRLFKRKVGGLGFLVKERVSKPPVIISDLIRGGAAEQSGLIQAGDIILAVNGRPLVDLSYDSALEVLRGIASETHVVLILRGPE
# Chain of PARD3_3, Q8TEW0 (Q8TEW0 582-685): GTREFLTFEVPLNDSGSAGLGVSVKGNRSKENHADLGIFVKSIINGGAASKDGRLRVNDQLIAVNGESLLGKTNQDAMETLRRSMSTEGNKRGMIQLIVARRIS
# Chain of Inadl_8, Q8NI35 (Q8NI35 1425-1530): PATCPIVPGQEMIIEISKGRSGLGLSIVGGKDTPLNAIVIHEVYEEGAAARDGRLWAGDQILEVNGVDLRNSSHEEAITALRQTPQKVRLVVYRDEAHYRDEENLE
# Chain of PICK1, Q9NRD5 (Q9NRD5 17-115): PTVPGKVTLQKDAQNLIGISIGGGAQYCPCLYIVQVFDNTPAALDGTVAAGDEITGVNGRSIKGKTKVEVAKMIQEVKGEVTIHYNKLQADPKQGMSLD
# Chain of DLG4_2, P78352 (P78352 155-259): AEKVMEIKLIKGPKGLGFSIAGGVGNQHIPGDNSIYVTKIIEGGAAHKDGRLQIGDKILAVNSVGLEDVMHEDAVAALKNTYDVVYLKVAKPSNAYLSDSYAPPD
binder,measurement,setting,value
"RAVEEEESRF [PSCDBP, O60759]",pKd,[1]; [27],below the threshold
same,pKd,[2]; [27],below the threshold
same,pKd,[3]; [27],below the threshold
same,pKd,[4]; [27],below the threshold
same,pKd,[5]; [27],5.64
same,pKd,[6]; [27],below the threshold
same,pKd,[7]; [27],below the threshold
same,pKd,[8]; [27],below the threshold
same,pKd,[9]; [27],below the threshold
same,pKd,[10]; [27],below the threshold
same,pKd,[11]; [27],below the threshold
same,pKd,[12]; [27],below the threshold
same,pKd,[13]; [27],below the threshold
same,pKd,[14]; [27],below the threshold
same,pKd,[15]; [27],below the threshold
same,pKd,[16]; [27],below the threshold
same,pKd,[17]; [27],below the threshold
same,pKd,[18]; [27],3.62
same,pKd,[19]; [27],below the threshold
same,pKd,[20]; [27],below the threshold
same,pKd,[21]; [27],4.09
same,pKd,[22]; [27],below the threshold
same,pKd,[23]; [27],below the threshold
same,pKd,[24]; [27],below the threshold
same,pKd,[25]; [27],below the threshold
same,pKd,[26]; [27],below the threshold
"RPLPRKVSQL [DOCK4, Q8N1I0]",pKd,[1]; [28],below the threshold
same,pKd,[2]; [28],below the threshold
same,pKd,[3]; [28],below the threshold
same,pKd,[4]; [28],below the threshold
same,pKd,[5]; [28],below the threshold
same,pKd,[6]; [28],3.97
same,pKd,[7]; [28],below the threshold
same,pKd,[8]; [28],below the threshold
same,pKd,[9]; [28],below the threshold
same,pKd,[10]; [28],below the threshold
same,pKd,[11]; [28],below the threshold
same,pKd,[12]; [28],below the threshold
same,pKd,[13]; [28],below the threshold
same,pKd,[14]; [28],below the threshold
same,pKd,[15]; [28],below the threshold
same,pKd,[16]; [28],below the threshold
same,pKd,[17]; [28],below the threshold
same,pKd,[18]; [28],below the threshold
same,pKd,[19]; [28],3.5
same,pKd,[20]; [28],below the threshold
same,pKd,[21]; [28],below the threshold
same,pKd,[22]; [28],below the threshold
same,pKd,[23]; [28],3.62
same,pKd,[24]; [28],below the threshold
same,pKd,[25]; [28],3.59
same,pKd,[26]; [28],below the threshold
"NRKREIFSNF [NHERF2, Q15599]",pKd,[1]; [27],below the threshold
same,pKd,[2]; [27],below the threshold
same,pKd,[3]; [27],below the threshold
same,pKd,[4]; [27],below the threshold
same,pKd,[5]; [27],below the threshold
same,pKd,[6]; [27],below the threshold
same,pKd,[7]; [27],below the threshold
same,pKd,[8]; [27],below the threshold
same,pKd,[9]; [27],below the threshold
same,pKd,[10]; [27],below the threshold
same,pKd,[11]; [27],below the threshold
same,pKd,[12]; [27],below the threshold
same,pKd,[13]; [27],below the threshold
same,pKd,[14]; [27],below the threshold
same,pKd,[15]; [27],below the threshold
same,pKd,[16]; [27],below the threshold
same,pKd,[17]; [27],below the threshold
same,pKd,[18]; [27],below the threshold
same,pKd,[19]; [27],below the threshold
same,pKd,[20]; [27],below the threshold
same,pKd,[21]; [27],below the threshold
same,pKd,[22]; [27],below the threshold
same,pKd,[23]; [27],below the threshold
same,pKd,[24]; [27],below the threshold
same,pKd,[25]; [27],below the threshold
same,pKd,[26]; [27],below the threshold
"PLSPEQPTKL [TRIM50, Q86XT4]",pKd,[1]; [29],below the threshold
same,pKd,[2]; [29],below the threshold
same,pKd,[3]; [29],below the threshold
same,pKd,[4]; [29],below the threshold
same,pKd,[5]; [29],below the threshold
same,pKd,[6]; [29],4.06
same,pKd,[7]; [29],below the threshold
same,pKd,[8]; [29],below the threshold
same,pKd,[9]; [29],below the threshold
same,pKd,[10]; [29],below the threshold
same,pKd,[11]; [29],below the threshold
same,pKd,[12]; [29],below the threshold
same,pKd,[13]; [29],below the threshold
same,pKd,[14]; [29],below the threshold
same,pKd,[15]; [29],below the threshold
same,pKd,[16]; [29],below the threshold
same,pKd,[17]; [29],below the threshold
same,pKd,[18]; [29],below the threshold
same,pKd,[19]; [29],below the threshold
same,pKd,[20]; [29],below the threshold
same,pKd,[21]; [29],below the threshold
same,pKd,[22]; [29],below the threshold
same,pKd,[23]; [29],below the threshold
same,pKd,[24]; [29],below the threshold
same,pKd,[25]; [29],below the threshold
same,pKd,[26]; [29],below the threshold
"RRRKRKRTYL [HPV49-L2, P36762]",pKd,[1]; [27],below the threshold
same,pKd,[2]; [27],below the threshold
same,pKd,[3]; [27],below the threshold
same,pKd,[4]; [27],below the threshold
same,pKd,[5]; [27],below the threshold
same,pKd,[6]; [27],3.98
same,pKd,[7]; [27],3.69
same,pKd,[8]; [27],4.18
same,pKd,[9]; [27],below the threshold
same,pKd,[10]; [27],4.37
same,pKd,[11]; [27],below the threshold
same,pKd,[12]; [27],below the threshold
same,pKd,[13]; [27],3.62
same,pKd,[14]; [27],below the threshold
same,pKd,[15]; [27],below the threshold
same,pKd,[16]; [27],4.11
same,pKd,[17]; [27],below the threshold
same,pKd,[18]; [27],3.71
same,pKd,[19]; [27],3.55
same,pKd,[20]; [27],below the threshold
same,pKd,[21]; [27],below the threshold
same,pKd,[22]; [27],below the threshold
same,pKd,[23]; [27],4.01
same,pKd,[24]; [27],3.47
same,pKd,[25]; [27],below the threshold
same,pKd,[26]; [27],below the threshold
